In article PMC4257719:

Target: P. berghei SPECT1Δ41 (amino acids 42-241) (P. berghei)
Test: SEC-MALS; TSK-Gel G3000 SWxl column with multiangle static light scattering; 150 mM NaCl, 50 mM Tris or HEPES, pH 7.4; monomer and dimer fractions run separately; the two species are stable over days

For “P. berghei SPECT1Δ41 (amino acids 42-241) (domain or fragment)”, the stoichiometry N was 2.
